Target: LRRK2 (wild type, transiently overexpressed; tagged construct not told for the experiment) (UniProt Q5S007 1-2527)
Assay: cell-based or functional assay

Sequence of LRRK2 (wild type, transiently overexpressed; tagged construct not told for the experiment) (Q5S007 whole entry): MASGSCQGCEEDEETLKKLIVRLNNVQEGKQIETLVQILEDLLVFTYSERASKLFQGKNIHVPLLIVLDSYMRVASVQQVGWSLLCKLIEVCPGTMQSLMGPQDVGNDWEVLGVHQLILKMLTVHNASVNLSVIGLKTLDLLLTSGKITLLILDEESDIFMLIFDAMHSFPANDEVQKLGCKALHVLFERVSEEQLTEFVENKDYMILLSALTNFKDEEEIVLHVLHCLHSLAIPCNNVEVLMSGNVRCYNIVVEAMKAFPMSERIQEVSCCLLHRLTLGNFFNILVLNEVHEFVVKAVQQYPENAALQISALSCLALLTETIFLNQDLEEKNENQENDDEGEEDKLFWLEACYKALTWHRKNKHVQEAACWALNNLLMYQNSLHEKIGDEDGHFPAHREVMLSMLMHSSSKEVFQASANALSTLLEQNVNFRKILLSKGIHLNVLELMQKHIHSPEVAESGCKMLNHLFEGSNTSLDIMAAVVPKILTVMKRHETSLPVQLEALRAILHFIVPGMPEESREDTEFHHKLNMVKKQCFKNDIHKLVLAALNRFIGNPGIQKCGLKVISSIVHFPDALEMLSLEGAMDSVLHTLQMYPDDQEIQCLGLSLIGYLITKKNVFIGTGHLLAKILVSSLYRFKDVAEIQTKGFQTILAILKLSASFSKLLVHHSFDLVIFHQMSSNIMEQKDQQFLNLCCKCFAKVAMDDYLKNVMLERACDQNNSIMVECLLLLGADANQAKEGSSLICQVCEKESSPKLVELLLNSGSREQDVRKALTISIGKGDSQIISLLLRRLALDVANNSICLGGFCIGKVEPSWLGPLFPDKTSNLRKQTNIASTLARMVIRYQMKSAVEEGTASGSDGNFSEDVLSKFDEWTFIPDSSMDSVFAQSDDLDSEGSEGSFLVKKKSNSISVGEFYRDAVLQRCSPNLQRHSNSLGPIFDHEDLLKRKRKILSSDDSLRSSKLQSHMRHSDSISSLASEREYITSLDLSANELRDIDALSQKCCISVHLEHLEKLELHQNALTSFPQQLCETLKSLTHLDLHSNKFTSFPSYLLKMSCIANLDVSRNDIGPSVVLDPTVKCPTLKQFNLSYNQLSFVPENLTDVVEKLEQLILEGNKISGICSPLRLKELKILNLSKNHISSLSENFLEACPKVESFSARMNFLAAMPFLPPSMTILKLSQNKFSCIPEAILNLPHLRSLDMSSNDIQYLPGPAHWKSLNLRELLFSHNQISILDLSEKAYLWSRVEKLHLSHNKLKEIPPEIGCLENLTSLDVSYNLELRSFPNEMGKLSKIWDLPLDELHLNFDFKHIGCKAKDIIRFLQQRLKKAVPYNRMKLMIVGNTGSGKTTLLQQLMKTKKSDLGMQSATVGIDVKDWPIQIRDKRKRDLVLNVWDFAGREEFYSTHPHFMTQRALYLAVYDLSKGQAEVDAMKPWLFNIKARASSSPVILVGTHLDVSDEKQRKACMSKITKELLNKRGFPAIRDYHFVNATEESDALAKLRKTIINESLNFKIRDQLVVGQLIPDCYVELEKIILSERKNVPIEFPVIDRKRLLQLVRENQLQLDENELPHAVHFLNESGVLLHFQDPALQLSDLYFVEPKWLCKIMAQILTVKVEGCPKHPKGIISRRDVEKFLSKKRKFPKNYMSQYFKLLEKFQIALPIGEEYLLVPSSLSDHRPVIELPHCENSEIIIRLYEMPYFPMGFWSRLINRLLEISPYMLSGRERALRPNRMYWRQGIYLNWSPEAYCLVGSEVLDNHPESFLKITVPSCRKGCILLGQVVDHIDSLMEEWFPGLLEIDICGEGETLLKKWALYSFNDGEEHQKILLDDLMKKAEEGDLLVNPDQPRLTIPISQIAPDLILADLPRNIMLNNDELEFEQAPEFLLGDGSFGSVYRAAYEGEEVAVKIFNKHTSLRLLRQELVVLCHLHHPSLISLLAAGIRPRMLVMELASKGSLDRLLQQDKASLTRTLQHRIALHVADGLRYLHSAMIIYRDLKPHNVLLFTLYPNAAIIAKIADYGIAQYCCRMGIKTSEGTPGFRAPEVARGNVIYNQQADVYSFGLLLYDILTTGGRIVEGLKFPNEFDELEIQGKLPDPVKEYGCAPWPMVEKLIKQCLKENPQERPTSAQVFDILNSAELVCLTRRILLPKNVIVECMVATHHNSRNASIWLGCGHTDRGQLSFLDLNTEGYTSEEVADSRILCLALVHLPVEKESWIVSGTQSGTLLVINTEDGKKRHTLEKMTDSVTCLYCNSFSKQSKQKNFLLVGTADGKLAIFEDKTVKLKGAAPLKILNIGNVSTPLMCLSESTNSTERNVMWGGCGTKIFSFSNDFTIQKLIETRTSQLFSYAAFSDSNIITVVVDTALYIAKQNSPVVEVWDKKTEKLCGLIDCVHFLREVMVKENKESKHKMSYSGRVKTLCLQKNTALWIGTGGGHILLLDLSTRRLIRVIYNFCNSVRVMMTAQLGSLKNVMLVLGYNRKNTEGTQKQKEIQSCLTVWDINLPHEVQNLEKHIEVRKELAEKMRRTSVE

- TOPFlash (WNT/β-catenin reporter) in HEK293T cells expressing DVL2, LRRK2 and PRICKLE1, fold of control (DVL2 with LRRK2 without PRICKLE1: ~130 fold): ~80 fold
B1: Prickle1-ECFP (natural protein, UniProt Q3U5C7 1-832, looked up)
chain: MPLEMEPKMSKLVFGCQRSSTSDDDSGCALEEYAWVPPGLRPEQIQLYFACLPEEKVPYVNSPGEKHRIKQLLYQLPPHDNEVRYCQSLSEEEKKELQVFSAQRKKEALGRGTIKLLSRAVMHAVCEQCGLQMNGGEVAVFASRAGPGVCWHPSCFVCFTCNELLVDLIYFYQDGKIHCGRHHAELLKPRCSACDEIIFADECTEAEGRHWHMKHFCCLECETVLGGQRYIMKDGRPFCCGCFESLYAEYCETCGEHIGVDHAQMTYDGQHWHATEACFSCAQCKASLLGCPFLPKQGQIYCSKTCSLGEDIHASDSSDSAFQSARSRDSRRSVRMGRSSRSADQCRQSLLLSPALNYKFPGLSGNADDTLSRKLDDVSLASRQGAGFANEEFWKARVEQEASEDPEEWAEHEDYMTQLLLKFGDKNLFQQQSSEVDPRASEHWIPDNMVTNKPEVKPNHQGLASKKYQSDMYWAQSQDGLGDSAYGSHPGPASSRRLQELDLDHGAAGYTHDQSQWYEDSLECLSDLKPEQSIRDSMDSLALSNITGASVDGESKPRPSLYSLQNFEEIEAEDCEKMSNMGTLNSSMLHRSAESLQSLNSGLCPEKILPEEKPAHLPVLRRSKSQSRPQQVKFSDDVIDNGSYDIEIRQPPMSERTRRRAYHFEERGSRPHHHRHRRSRKSRSDNALNLVTERKYSAKDRLRLYTPDNYEKFIQNKSARELQAYMQNANLYSQYAHATSDYALQNPGMNRFLGLCGEDDDSWCSSSTSSSDSEEEGYFLGQPIPQPRPQRFTYYTDDLSSPASALPTPQFTQRTTKSKKKKGHKGKNCIIS

Reference: publication PMC5505151, “A proteomic analysis of LRRK2 binding partners reveals interactions with multiple signaling components of the WNT/PCP pathway” (Molecular Neurodegeneration, 2017)
